# Substitutions are numbered along the chain they refer to. Numbers in names are those of the source. Where “and” joins values, the source holds several entries; their conditions need not be identical. Equal entries are not always repeated.
# B1: Saccharomyces cerevisiae diphosphomevalonate decarboxylase (PMDsc), wild type, SEQ ID NO: 1 (Saccharomyces cerevisiae S288C) (protein)
# chain: MTVYTASVTAPVNIATLKYWGKRDTKLNLPTNSSISVTLSQDDLRTLTSAATAPEFERDTLWLNGEPHSIDNERTQNCLRDLRQLRKEMESKDASLPTLSQWKLHIVSENNFPTAAGLASSAAGFAALVSAIAKLYQLPQSTSEISRIARKGSGSACRSLFGGYVAWEMGKAEDGHDSMAVQIADSSDWPQMKACVLVVSDIKKDVSSTQGMQLTVATSELFKERIEHVVPKRFEVMRKAIVEKDFATFAKETMMDSNSFHATCLDSFPPIFYMNDTSKRIISWCHTINQFYGETIVAYTFDAGPNAVLYYLAENESKLFAFIYKLFGSVPGWDKKFTTEQLEAFNHQFESSNFTARELDLELQKDVARVILTQVGSGPQETNESLIDAKTGLPKE
# B2: Saccharomyces cerevisiae diphosphomevalonate decarboxylase (PMDsc, SEQ ID NO: 1) variant R74G (Saccharomyces cerevisiae S288C; R74G) (protein)
# chain: B1 chain with R74G
# B3: Saccharomyces cerevisiae diphosphomevalonate decarboxylase (PMDsc, SEQ ID NO: 1) variant I145A (Saccharomyces cerevisiae S288C; I145A) (protein)
# chain: B1 chain with I145A
# notes: His tag; made in house; host or cells: E. coli Rosetta (DE3)
# B4: Saccharomyces cerevisiae diphosphomevalonate decarboxylase (PMDsc, SEQ ID NO: 1) variant R147K (Saccharomyces cerevisiae S288C; R147K) (protein)
# chain: B1 chain with R147K
# notes: as for B3
# B5: Saccharomyces cerevisiae diphosphomevalonate decarboxylase (PMDsc, SEQ ID NO: 1) variant S186C (Saccharomyces cerevisiae S288C; S186C) (protein)
# chain: B1 chain with S186C
# notes: as for B3
# B6: Saccharomyces cerevisiae diphosphomevalonate decarboxylase (PMDsc, SEQ ID NO: 1) variant M212Q (Saccharomyces cerevisiae S288C; M212Q) (protein)
# chain: B1 chain with M212Q
# notes: as for B3
# B7: Saccharomyces cerevisiae diphosphomevalonate decarboxylase (PMDsc, SEQ ID NO: 1) variant Y19H (Saccharomyces cerevisiae S288C; Y19H) (protein)
# chain: B1 chain with Y19H
# notes: as for B3
# B8: Saccharomyces cerevisiae diphosphomevalonate decarboxylase (PMDsc, SEQ ID NO: 1) variant K22Y (Saccharomyces cerevisiae S288C; K22Y) (protein)
# chain: B1 chain with K22Y
# notes: as for B3
# B9: V230E: PMDsc mutant V230E (protein)
# chain: B1 chain with V230E
# B10: S208E: inactive PMDsc mutant, negative control (protein)
# chain: B1 chain with S208E
# B11: K22M: PMDsc mutant K22M with decreased activity, previous study (protein)
# chain: B1 chain with K22M
# B12: S155E (protein)
# chain: B1 chain with S155E
# B13: T209D (protein)
# chain: B1 chain with T209D
# B14: R74G-R147K: PMDsc double mutant (protein)
# chain: B1 chain with R74G, R147K
# B15: R74G-E144D (protein)
# chain: B1 chain with R74G, E144D
# B16: K22Y: PMDsc mutant K22Y (protein)
# chain: B1 chain with K22Y
# B17: Q140L (protein)
# chain: B1 chain with Q140L
# B18: E144D (protein)
# chain: B1 chain with E144D
# B19: R74G-R147K-Q140L: PMDsc triple mutant (protein)
# chain: B1 chain with R74G, Q140L, R147K
# Experiments:
# DH1 = experiment: Fosmidomycin sensitivity of E. coli strain DH1; type: cell-based
# Procedure: Fosmidomycin sensitivity was tested by introducing various amounts of fosmidomycin into DH1, BW25113 and BL21, three E. coli strains commonly used for microbial metabolic engineering. […] At higher concentrations of fosmidomycin, cell death was accelerated in DH1, supported by a fast reduction in optical density (OD) at 600 nm after approximately two hours of exposure to fosmidomycin. On the other hand, both BL21 and BW25113 continued to grow for approximately four hours when exposed to equivalent fosmidomycin levels. Therefore, DH1 was selected as a host strain to screen PMD mutants for improved MVAP decarboxylation activity and subsequent isopentenol production in this study.
# [1] = substrate: C[C@@](O)(CCOP(=O)(O)O)CC(=O)O; experiment: purified protein, by the assay type; conditions: other: MVAP 0.100-4.0 mM, 4 mM ATP, pH 7.5, brackets: standard error
# Procedure: This turnover number (kobs) depends upon each mutant's kcat, KM, and KI, yielding a more accurate assessment of the turnover conditions in vivo (Kang et al., 2016).
# In vitro enzyme kinetics of PMDsc were performed as described in the previous study (Kang et al., 2016). Briefly, enzymatic activity was determined by a spectrophotometric assay quantifying ADP product formation via the pyruvate kinase/lactate dehydrogenase coupled enzyme assay. Assay mixtures were prepared in 150 μL total volume containing 50 mM HEPES-KOH (pH 7.5), 10 mM MgCl2, 400 μM phosphoenolpyruvate, 400 μM NADH, 4 mM ATP, and 25 U of pyruvate kinase/lactate dehydrogenase. The reaction was initiated by enzyme after incubating PMDsc substrate and cofactor for fifteen minutes with coupled assay components. The MVAP was varied from 0.100-4.0 mM, and the reaction velocity was determined by monitoring the absorbance at 340 nm in a Spectramax 384plus microplate reader (Molecular Devices, USA). To obtain kinetic data relevant to non-competitive substrate inhibition, MVAP was varied from 0.100-100 mM. Enzyme concentration (ε=56,630 M^−1 cm^−1) was determined spectrophotometrically at 280 nm with a NanoDrop ND-1000 spectrophotometer. kcat and KM were derived for PMDsc mutants by fitting the initial velocities measured from 0.100-4.0 mM MVAP to the Michaelis-Menten equation; KI was determined for select mutants by fitting initial velocities measured from 0.100-100 mM MVAP to the non-competitive substrate inhibition equation. All kinetic analysis was performed in Graphpad Prism, version 7.0a.
# E. coli DH1 [2] = experiment: Growth of E. coli DH1 under the screening conditions (MEP pathway blocked by fosmidomycin, IPP-bypass pathway + IPK); conditions: for growth under fosmidomycin selection pressure: screening platform
# E. coli DH1 [3] = experiment: Isopentenol production in E. coli via IPP-bypass MVA pathway (GC-FID); type: cell-based, Escherichia coli
# [4] = substrate: C[C@@](O)(CCOP(=O)(O)O)CC(=O)O; experiment: In vitro kinetics of MVAP decarboxylation by PMDsc I145A (coupled assay); type: biochemical, Saccharomyces cerevisiae; conditions: other: MVAP 0.100-4.0 mM, 4 mM ATP, pH 7.5, brackets: standard error
# [5] = substrate: C[C@@](O)(CCOP(=O)(O)O)CC(=O)O; experiment: In vitro kinetics of MVAP decarboxylation by PMDsc R147K (coupled assay); type: biochemical, Saccharomyces cerevisiae; conditions: other: MVAP 0.100-4.0 mM, 4 mM ATP, pH 7.5, brackets: standard error
# [6] = substrate: C[C@@](O)(CCOP(=O)(O)O)CC(=O)O; experiment: In vitro kinetics of MVAP decarboxylation by PMDsc S186C (coupled assay); type: biochemical, Saccharomyces cerevisiae; conditions: other: MVAP 0.100-4.0 mM, 4 mM ATP, pH 7.5, brackets: standard error
# [7] = substrate: C[C@@](O)(CCOP(=O)(O)O)CC(=O)O; experiment: In vitro kinetics of MVAP decarboxylation by PMDsc M212Q (coupled assay); type: biochemical, Saccharomyces cerevisiae; conditions: other: MVAP 0.100-4.0 mM, 4 mM ATP, pH 7.5, brackets: standard error
# [8] = substrate: C[C@@](O)(CCOP(=O)(O)O)CC(=O)O; experiment: In vitro kinetics of MVAP decarboxylation by PMDsc Y19H (coupled assay); type: biochemical, Saccharomyces cerevisiae; conditions: other: MVAP 0.100-4.0 mM, 4 mM ATP, pH 7.5, brackets: standard error
# [9] = substrate: C[C@@](O)(CCOP(=O)(O)O)CC(=O)O; experiment: In vitro kinetics of MVAP decarboxylation by PMDsc K22Y (coupled assay); type: biochemical, Saccharomyces cerevisiae; conditions: other: MVAP 0.100-4.0 mM, 4 mM ATP, pH 7.5, brackets: standard error
# [10] = In vitro enzyme kinetics of PMDsc variants (pyruvate kinase/lactate dehydrogenase coupled assay); type: biochemical
# [11] = cited from earlier work; for activity of WT for phosphomevalonate (MVAP): previous study (Kang 2015)
# E. coli DH1 [12] = conditions: Kang et al., 2016; cited from earlier work
# [13] = 10-fold higher inducer concentration (100 nM aTc)
# [14] = Table 2, screening conditions, standard deviation in brackets
# [15] = text and figure legends, 48 hours after induction
# [16] = compared with wild type or library mutants
# [17] = Table 2, MVAP 0.100-4.0 mM, standard error in brackets
# [18] = Table 2, MVAP, standard error in brackets
molecule,measurement,setting,value
O=CN(O)CCCP(=O)(O)O [fosmidomycin],growth on fosmidomycin,DH1; 10 μM fosmidomycin,no growth
same,exposure time until fast reduction in OD at 600 nm,DH1; higher concentrations of fosmidomycin,approximately two
B1,Km,[1],2.3 ± 0.2 mM
same,kcat,[1],0.15 (0.01) sec^−1
same,kcat/Km,[1],0.066 (0.007) mM^−1 sec^−1
same,Growth rate,E. coli DH1 [2]; [13],0.83±0.01 hr^1
same,growth rate (reference line FIG. 6),E. coli DH1 [2]; FIG. 6 legend,0.4
same,Growth rate,E. coli DH1 [2]; [14],0.39 (0.02) hr^−1
same,Growth rate,E. coli DH1 [2]; Table 3,0.39 h⁻¹
same,Growth rate,E. coli DH1 [2]; screening conditions,0.4 h⁻¹
same,48 hr Titer (isopentenol),E. coli DH1 [3],475 (40) mg/L and 475 mg/L
same,isopentenol titer,E. coli DH1 [3]; [15],475.1 mg/L
same,isopentenol titer,"E. coli DH1 [3]; text and figure legends, 48 hours after induction, listed as wild type",475 mg/L
B2,Km,[1],3.4 (1.0) mM
same,kcat,[1],0.14 (0.02) sec^−1
same,kcat/Km,[1],0.04 (0.01) mM^−1 sec^−1
same,Growth rate,E. coli DH1 [2]; [14],0.81 (0.03) hr^−1
same,Growth rate,E. coli DH1 [2]; Table 3,0.81 h⁻¹
same,48 hr Titer (isopentenol),E. coli DH1 [3],975 (96) mg/L and 975 mg/L
B3,Km,[4],2 (1) mM
same,kcat,[4],0.029 (0.004) sec^−1
same,kcat/Km,[4],0.01 (0.01) mM^−1 sec^−1
same,Growth rate,E. coli DH1 [2]; [14],0.17 (0.00) hr^−1
same,48 hr Titer (isopentenol),E. coli DH1 [3],623 (140) mg/L
B4,Km,[5],0.5 (0.1) mM
same,kcat,[5],0.149 (0.006) sec^−1
same,kcat/Km,[5],0.32 (.09) mM^−1 sec^−1
same,Growth rate,E. coli DH1 [2]; [14],0.56 (0.02) hr^−1
same,48 hr Titer (isopentenol),E. coli DH1 [3],793 (22) mg/L
same,isopentenol titer,E. coli DH1 [3]; [16],increased isopentenol production titers
B5,Km,[6],0.8 (0.2) mM
same,kcat,[6],0.07 (0.01) sec^−1
same,kcat/Km,[6],0.08 (0.02) mM^−1 sec^−1
same,Growth rate,E. coli DH1 [2]; [14],0.30 (0.02) hr^−1
same,48 hr Titer (isopentenol),E. coli DH1 [3],596 (110) mg/L
B6,Growth rate,E. coli DH1 [2]; [14],0.09 (0.01) hr^−1
same,48 hr Titer (isopentenol),E. coli DH1 [3],601 (76) mg/L
same,isopentenol titer,E. coli DH1 [3]; [16],significantly increase isopentenol titer
same,Km,[7],0.7 (0.2) mM
same,kcat,[7],0.35 (0.02) sec^−1
same,kcat/Km,[7],0.5 (0.1) mM^−1 sec^−1
B7,Growth rate,E. coli DH1 [2]; [14],0.22 (0.01) hr^−1
same,48 hr Titer (isopentenol),E. coli DH1 [3],388 (9) mg/L
same,isopentenol titer,E. coli DH1 [3]; [16],significantly decreased isopentenol titers
same,Km,[8],0.35 (0.02) mM
same,kcat,[8],0.27 (0.01) sec^−1
same,kcat/Km,[8],0.78 (0.06) mM^−1 sec^−1
B8,Km,[9],1.3 (0.3) mM
same,kcat,[9],0.09 (0.01) sec^−1
same,kcat/Km,[9],0.12 (0.03) mM^−1 sec^−1
B9,Growth rate,E. coli DH1 [2]; [14],0.21 (0.18) hr^−1
same,Growth rate,E. coli DH1 [2]; Table 3,0.2 h⁻¹
same,48 hr Titer (isopentenol),E. coli DH1 [3],278 (91) mg/L and 278 mg/L
same,Ki,"[10]; MVAP up to 100 mM, read-out: KI (substrate inhibition)",10 mM
same,kcat,[10]; [17],0.07 (0.01) sec^−1
same,Km,[10]; [18],800 µM
same,Km,[10]; Table 3,800 µM
same,kcat,[10]; Table 3,0.07 s⁻¹
same,kobs,"[10]; Table 3, observed turnover number calculated at 100 mM MVAP",0.006 s⁻¹
B10,activity toward MVAP,"[11]; Kang et al., 2016",inactive toward MVAP
same,activity of WT for phosphomevalonate (MVAP),[11],not detectible
same,growth under fosmidomycin selection pressure,E. coli DH1 [2],"none of three IPK-expressing DH1 strains (SP4, SP5 and SP6) could grow"
B11,activity of WT for phosphomevalonate (MVAP),[11],25%
same,Growth rate,E. coli DH1 [2]; [13],0.83±0.01 hr^1
same,growth under fosmidomycin selection pressure,E. coli DH1 [2],decreased growth rates relative to wild type
B12,growth under fosmidomycin selection pressure,E. coli DH1 [2],impaired growth
B13,isopentenol titer in E. coli,E. coli DH1 [12],did not significantly change the isopentenol titer
B14,Growth rate,E. coli DH1 [2]; [14],0.84 (0.04) hr^−1
same,isopentenol titer relative to wild type,E. coli DH1 [3],1.9 fold
same,48 hr Titer (isopentenol),E. coli DH1 [3],909 (25) mg/L
same,kcat,[10]; [17],0.22 (0.01) sec^−1
same,Km,[10]; [18],530 µM
B15,isopentenol titer relative to wild type,E. coli DH1 [3],1.6 fold
B16,Growth rate,E. coli DH1 [2]; [14],0.13 (0.11) hr^−1
same,48 hr Titer (isopentenol),E. coli DH1 [3],22 (8) mg/L
same,isopentenol titer,E. coli DH1 [3]; [15],22 ± 8 mg/L
B17,isopentenol titer,E. coli DH1 [3]; [16],increased isopentenol production titers
B18,isopentenol titer,E. coli DH1 [3]; [16],increased isopentenol production titers
B19,48 hr Titer (isopentenol),E. coli DH1 [3],401 (10) mg/L
same,kcat,[10]; [17],0.06 (0.01) sec^−1
same,Km,[10]; [18],2000 µM
